The data set concerns the molecule itself. Description: SEC-MALS; size exclusion chromatography coupled with multiangle light scattering on FlcD without a His6-tag. (Size exclusion chromatography separates by hydrodynamic size, large species first.)

B1: FlcD without a His6-tag (FlcD_(tagless)) (enzyme, Pseudomonas aeruginosa)
chain: MNTRNFSLPQLQNLPIEEARIVADALAVHATSRQIDSAASKLAALAEAGLKGDRQAYAAYQQLLYVLSLSDDVATAQTRRWLARAIYRVEERFMPAADLSRALSEEDFQKRLEQEIAAQSRERHPMSQYVFSGSASRAQLQVFLRHQWFRTFRLYRDAADLLVNLTDVDEAAALARYLYGELGEEDEKGSHPRLLAKLLEAIGLEADFQAVSTMPEEIAYLNNRARAFRHAEVGWGLAVFYITELVVPGNHEKLYRALLQAGLSEDQAEYYKVHISLVPPRAKREWQLIARRIPDVQFQNAFLTSLSQHFRVERAYYDAIWEEMQSVK
notes: FlcD, heme oxygenase-like domain-containing oxidase (HDO) of Pseudomonas aeruginosa, without a His6-tag; see the Supporting Information PDF
As to B1, the stoichiometry N (in general, a count of units in the complex or per binding partner) was 2.

Source of the values: paper PMC11363339, “Structural Basis for Methine Excision by a Heme Oxygenase-like Enzyme” (ACS Central Science, 2024).
